From patent US11459387B2, “Anti-CD147 antibody” (DAIICHI SANKYO COMPANY, LIMITED, priority 2017, dated 2022)

Experiments:
[1] = test system: human peripheral blood mononuclear cells; test: Cytokine release assay using human peripheral blood; type: cell-based; conditions: 6 donors
Description: In some antibodies such as OKT3 and TGN1412, administration of the therapeutic antibodies causes an increase in cytokines in the blood by activating immune cells, thereby causing serious cytokine release syndrome (Gaston, R., Kidney International, 1991, 141-148; Suntharalingam, G., et al., N. Engl. J. Med. 2006, 1018-1028). It has been reported that some CD147 antibodies act on immune cells, having an action of increasing production of interferon gamma or interleukin-4 (Hu, J., et al., J. Cell. Mol. Med., 2010, 2132-2143). The toxicity of antibody drugs due to cytokine release syndrome can be predicted by a cytokine release assay using peripheral blood (Vessillier, S. et al., J. Immunolol. Methods, 2015, 43-52).

[2] = test system: human liver cell line HepG2; test: HepG2 liver cancer model in NOD-scid mice; type: in vivo; conditions: qD1x9 po, n=5; for Average tumor volume: NOD-scid mice
Protocol: 5×10^6 cells of the human liver cell line HepG2 were suspended in PBS containing 50% Matrigel (Corning Inc., Cat. 354234), and the suspension was inoculated subcutaneously into the axilla of 4 week-old female NOD-scid mice (NOD. CB17-Prkdc/J, purchased from CHARLES RIVER LABORATORIES JAPAN, INC). […] As a control drug, sorafenib (Nexavar tablets 200 mg, Bayer AG), which is a therapeutic agent for liver cancer, was dissolved in a PEG-35 castor oil (Cremophor EL, NACALAI TESQUE, INC., Cat. 09727-14) ethanol solvent according to the reference (Chang et. al., Cancer Chem. Thera. Pharm., 2007) attached to Nexavar tablets, and the solution was orally administered to cancer-bearing mice at 30 mg/kg or 90 mg/kg 9, 10, 11, 12, 13, 16, 17, and 18 days after the inoculation (n=5). The major axis and the minor axis of the inoculated tumor were measured twice a week using an electronic digital caliper (available from MITUTOYO CORPORATION) to calculate the tumor volume by the following formula. Tumor volume (mm^3)=½×minor axis (mm)×minor axis (mm)×major axis (mm)

[3] = test system: human pancreatic line MIA PaCa-2; test: CDC activity with rabbit complement, CellTiter-Glo; type: cell-based; conditions: antibody 10 μg/ml; rabbit complement 7.5%; 3 hours
Protocol: Complement-dependent cytotoxicity (CDC) activity can be evaluated by measuring cell death caused when complement contained in blood, an antibody and target cells are brought into contact. The CDC activity of the anti-human CD147 antibody of the present invention is measured as follows. The complement-dependent cytotoxicity activity (CDC activity) of the anti-human CD147 antibody is evaluated using human pancreatic cell line MIA PaCa-2 as target cells. Commercially available rabbit complement (Low Tox-M Rabbit Complement, […] LABORATORIES LIMITED, Cat. CL3051) is used as the complement. […] Target cells are treated with the antibody to be evaluated and the negative control antibody at concentrations of 0, 0.1, 1 or 10 μg/ml for 1 hour at 4° C., the rabbit complement is added in such a manner that the final concentration is 7.5%, the resultant mixture is heated at 37° C. in the presence of 5% CO2 for 3 hours, and then intracellular ATP contained in living cells is measured using the CellTiter-Glo Lumimescent Cell Viability Assay (Promega, Cat. G7572). Luminescent signals obtained using the CellTiter-Glo Lumimescent Cell Viability Assay are quantitatively determined using an EnVision 2104 Multilabel Reader (Perkin Elmer). The measurement is performed three times and the average value and the standard deviation are calculated. […]

[4] = test system: human pancreatic line BxPC-3; test: SMAD4-negative BxPC-3 pancreatic cancer-bearing model in BALB/c-nu mice; type: in vivo; conditions: antibody 10 mg/kg ip 8, 15 and 22 days after the inoculation; BALB/c-nu mice
Description: The transcription factor, SMAD4, is known as one of the molecules important for activation of SMAD signaling (Zang, et al., Current Biology, 270-276, 1997). It is known that SMAD signaling is partially impaired due to genetic defects of SMAD4 in some pancreatic cancers (Hahn, et al., Science, 350-353, 1996). […] 2.5×10^6 cells of human pancreatic line BxPC-3 (ATCC, Cat. CRL-1687) were suspended in PBS containing […] (Corning Inc., Cat. 354234), and the suspension was inoculated subcutaneously into the axilla of 6 week-old female BALB/c-nu mouse (CAnN. Cg-Foxn1nu/CrlCrlj, purchased from CHARLES RIVER LABORATORIES JAPAN, INC). […] As a control drug, gemcitabine (Eli Lilly Japan K.K., Gemzar®) that is a therapeutic agent for pancreatic cancer was administered to mice bearing tumor via the tail vein at 200 mg/kg 8, 15, 22 days after the inoculation (n=5). The major axis and the minor axis of the inoculated tumor were measured twice a week using an electronic digital caliper (available from MITUTOYO CORPORATION) to calculate the tumor volume by the following formula. Tumor volume (mm^3)=½×minor axis (mm)×minor axis (mm)×major axis (mm)

[5] = test system: human pancreatic line MIA PaCa-2; test: ADCC activity, 51Cr release, human PBMC effector cells; type: cell-based; conditions: antibody 0.5 or 5 μg/ml; MIA PaCa-2 target cells
Protocol: Antibody-dependent cellular cytotoxicity (ADCC) activity can be measured by a ^51Cr release assay method, which measures cell death caused when immune cells having effector activity, an antibody and ^51Cr-labeled target cells are brought into contact. The ADCC activity of the anti-human CD147 antibody of the present invention is measured as follows. Regarding the ADCC activity of the anti-human CD147 antibody, human peripheral blood mononuclear cells (PBMC) are used as effector cells, and a CD147-positive human cancer cell line (for example, pancreatic cancer cell line MIA PaCa-2) is used as ADCC target cells. Cancer cells labeled with a radioisotope, ^51Cr, and the antibody to be evaluated are treated at a concentration of 0.5 or 5 μg/ml at 4° C. for 30 minutes, PBMC separated from human peripheral blood is added at 20 times the proportion of cancer cells, and then cells are cultured for 4 hours at 37° C. in the presence of 5% CO2. […] The measured value of ^51Cr released from ^51Cr-labeled cancer cells treated with Triton-100 is designated as a “Maximum release value” and the measured value of ^51Cr released from ^51Cr-labeled cancer cells treated with antibody in the absence of PBMC is designated as a “Spontaneous release value”. With these values, % Specific release is calculated from the following formula. […]

[6] = test system: human pancreatic line PANC-1; test: Antibody screening by in-vivo antitumor efficacy, PANC-1 xenograft in NOD-scid mice
Protocol: 1×10^7 cells of human pancreatic line PANC-1 were suspended in PBS, and the suspension was inoculated subcutaneously into the axilla of NOD-scid mice (CHARLES RIVER LABORATORIES JAPAN, INC., NOD. CB17-Prkdc/J). […] The major axis and the minor axis of the inoculated tumor were measured twice a week using an electronic digital caliper (available from MITUTOYO CORPORATION) to calculate the tumor volume by the following formula. Tumor volume (mm^3)=½×minor axis (mm)×minor axis (mm)×major axis (mm)

anti-human CD3 antibody (OKT3): comparative antibody in the cytokine release assay (BioLegend Cat. No317326) [reference compound]
acceleration of cell growth in human peripheral blood mononuclear cells [1]: acceleration of cell growth | cytokine release (TNFα, INF-γ, IL-2, IL-6, IL-8, IL-10, MIP-1α) ([1]; human peripheral blood): acceleration of cytokine release

CNC(=O)c1cc(Oc2ccc(NC(=O)Nc3ccc(Cl)c(C(F)(F)F)c3)cc2)ccn1 [Sorafenib, sorafenib, reference compound]
Number of examples of complete tumor regression ([2]; 30 mg/kg): 0/5 | tumor growth inhibition rate ([2]; 30 mg/kg): 18% | Average tumor volume ([2]; 30 mg/kg): 1425 mm^3 | Number of examples of complete tumor regression ([2]; 90 mg/kg): 0/5 | tumor growth inhibition rate ([2]; 90 mg/kg): 28% | Average tumor volume ([2]; 90 mg/kg): 1252 mm^3

B1: LN22R8: mouse anti-human CD147 monoclonal antibody, Mouse IgG3; light chain variable region SEQ ID NO: 8, heavy chain variable region SEQ ID NO: 10 (antibody, listed as Mus musculus, V domains shown)
VH: QIQLVQSGPELKKPGETVKISCKASGYTFTNYGMNWVKQAPGKGLKWMGWINTYTGEPTYADDFKGRFAFSLETSASTAYLQINNLKNEDTATYFCARGGYGNYGAGAMDYWGQGTSVTVSS
VL: DIQMTQSPSSLSASLGERVSLTCRASLEISGFLSWLQQKPDGTIKRLIYAASILDSGVPKRFSGSRSGSDYSLTISSLESEDFADYYCLQYASYPWTFGGGTKLEIKR
living cells (CDC activity, luminescence of non-treated cells = 100%) [3]: 41.1% | sensitivity of BxPC-3 tumor (in words) [4]: resistant | ADCC activity (in words) [5]: no ADCC activity | tumor growth inhibition rate ([6]; 10 mg/kg ip administration group, 48th day after the inoculation (final measurement date), NOD-scid mice): 50% | in vivo anti-tumor effect ([6]; antitumor efficacy of Example 1)-7 (PANC-1 xenograft, 10 mg/kg) as listed in Table 3): 50%
